Patent US20230348573A1 (KEIO UNIVERSITY, published 2023)

Experiments:
Experiment in all cases: cell-based or functional assay
[1] = target: spike protein of SARS-CoV-2 α strain on pseudovirus (SARS-CoV-2 (α strain))
[2] = target: spike protein of SARS-CoV-2 δ strain on pseudovirus (SARS-CoV-2 (δ strain))
[3] = target: spike protein of SARS-CoV-2 B.1.1.482 strain on pseudovirus (SARS-CoV-2 (B.1.1.482 strain))
[4] = target: spike protein of SARS-CoV-2 β strain on pseudovirus (SARS-CoV-2 (β strain))
[5] = target: spike protein of SARS-CoV-2 γ strain on pseudovirus (SARS-CoV-2 (γ strain))

Binder | IC50 of pseudovirus infection (luciferase) [1] | IC50 of pseudovirus infection (luciferase) [2] | IC50 of pseudovirus infection (luciferase) [3] | IC50 of pseudovirus infection (luciferase) [4] | IC50 of pseudovirus infection (luciferase) [5]
Ab354 (antibody, V domains shown) VH: QVQLVQSGAEVKKPGASVTVSCKASGFLFTGYYMHWVRQAPGQGLEWMGWINPNSGASNYTRKFQGRVTMTRDTSISATYMKLSRLTSDDTAVYYCARDLAFSMVRGALDYWGQGTLVTVSS VL: QLVLTQPPSASGSPGQSVTISCTGTSSDVGGYNYVSWYQHHPGKAPKLMIYEVSKRPSGVPDRFSGSKSGNTASLTVSGLQAEDEADYYCNSYAGNNNWVFGTGTKVTVL | 0.0937 µg/mL | 0.0715 µg/mL | 0.277 µg/mL |  | 
Ab496 (antibody, V domains shown) VH: EVQLVQSGPEVKKPGTSVKVSCKASGFIFTNSAVQWVRQARGQRLEWIGWIVVGSGNPNYAQKFQERVTITRDRSTSTAYMELSSLTSEDTAVYYCAAFPYYYDNSGSGPWGQGTLVTVSS VL: DIQLTQSPSSLSASVGDRVTITCQASQDIRNNLNWYQQIPGKAPKLLIYDASNLETGVPSRFSGSASGTDFTFTISSLQPEDVATYYCQQYANLPPFTFGPGTKVDIK | 0.0169 µg/mL | 0.00984 µg/mL | 0.0506 µg/mL |  | 
Ab326 (antibody, V domains shown) VH: EVQLVESGGGVVQPGRSLRLSCAASGFTFSHYPMHWVRQAPGRGLEWVAVISYDGSNQHYVDSVKGRFTISRDNSKNTLYLQMNSLRAEDTAVYFCASLITMIRGVPDYWGQGTLVTVSS VL: DIQMTQSPSSLSASVGDRVTITCRASQSISNYLNWYQQKPGKAPNLLIFAASSLQSGVPSRFSGSGSGTEFTLTISSLQPEDFAAYYCLQTYSTPRTFGQGTRLEIK | 0.0493 µg/mL | 0.0184 µg/mL |  |  | 
Ab159 (antibody, V domains shown) VH: QVQLVESGGGLVKPGGSLRLSCAASGFTFNNAWMSWVRQAPGKGLEWVGRIKSKTDGGTTDYAAPVKGRFTFSRDDSKNTLYLQMSSLKTEDTALYYCTTADYDILTGTPASPYWGQGTLVTVSS VL: DIQMTQSPSSLSASVGDRVTITCRASQSITNYLNWYQQKPGKAPKFLIYAASSLQGGVPSRFRGSGSGTDFTLTISSLQPEDFATYYCQQTYSTLWTFGQGTKVEIK | 0.0119 µg/mL | 0.13 µg/mL | 0.0233 µg/mL | 0.00537 µg/mL | 0.00369 µg/mL
Ab188 (antibody, V domains shown) VH: EVQLVESGGGLVQPGGSLRLSCAASGFTFINYKMNWVRQAPGKGLEWVSYISSGSDAIYYADSVKGRFTISRDNAKNSLYLQMNSLRDEDTALYYCARGGGYNYGECMDVWGQGTTVTVSS VL: not shown | 0.248 µg/mL | 0.139 µg/mL | 0.171 µg/mL | 0.0179 µg/mL | 
Ab709TK (antibody, V domains shown) VH: QVQLVESGGGVVQPGKSLRLSCAASGFTFSSYAMHWVRLAPGKGLEWVAVISPDGKNKYYVDSVKGRSTISRDNSKNTLYLLMNSLRAEDTAVYYCATTQSLWFGQFYYIYGMDVWGQGTTVTVSS VL: QSVLTQPHSVSESPGKTITISCTGSSGSIASNYVQWYQQRPGSAPTTVIYEDTERPSGVPDRFSGSIDSSSNSASLTISGLKTEDEADYYCQSYDSNNVVFGGGTKLTVL | 0.236 µg/mL | 0.0586 µg/mL | 0.172 µg/mL | 0.0058 µg/mL | 0.0033 µg/mL
Ab712 (antibody, V domains shown) VH: QVQLVQSGSELKKPGASVKISCKASGYTFINHAINWVRQAPGQGLEWMGWINTNTGNPTYAPGFTGRFVFSLDTSVSTAYLQISSLKAEDTAVYYCARIPIRDYDYDGSGYYYFLDYWGQGTLVTVSS VL: SYELTQDPAVSVALGQTVRITCQGDSLRSSSASWYQQKPGQAPVLVIYGKTNRPSGIPDRFSGSSSGNTASLTITGAQAEDEADYYCNSRDNSGNHPVVFGGGTKLTVL | 0.103 µg/mL | 0.0799 µg/mL | 0.0164 µg/mL | 0.0077 µg/mL | 0.0022 µg/mL
Ab765 (antibody, V domains shown) VH: QVQLVESGGGVVQPGRSLRLSCAASGFTFSDYAIHWVRQAPGRGLEPVALISYDGNNKYYADSVKGRFTISRDNSKNVLYLQMNSLRADDTAVYYCARDAEGGWVAALDYWGQGTLVTVSS VL: QSALTQPRSVSGSPGQSVTISCTGTSSDVGGYNYVSWYQHHPGKAPKVMIYEVSKRPSGVPDRFSGSKSGTTASLTISGLQAEDEADYYCCSYAGTYPYVFGTGTKVTVL | 0.0166 µg/mL | 0.0269 µg/mL | 0.0117 µg/mL | 0.0045 µg/mL | 0.0144 µg/mL
Ab803 (antibody, V domains shown) VH: EVQLVESGGGLVQPGRSLRVSCAASGFTFDDYAMHWVRQTPRKGLEWVAGISRNSAAIAYADSVKGRFTISRDNAKNSVFLQMNGLRADDTALYYCVKSPRYGWGSPDYSFDFWGRGTLVTVSS VL: DIQLTQSPSSLSASVGDRVTITCRASQNIGTYLNWYQQEPGKAPKLLIYAASSLQSGVPSRFSGSGSGTDFTLTISSLQPEDFATYCCQQSFTTPLTFGQGTKVEIK | 0.402 µg/mL | 0.0639 µg/mL | 0.144 µg/mL | 0.0104 µg/mL | 0.0106 µg/mL
Ab816 (antibody, V domains shown) VH: QVQLVQSGAEVKKPGESLMISCKASGYNFRNYWIAWVRQMPGKGLEWMGIIHPGDSDIRYRPSLQGHVTISADKSITTAYLQWGSLKASDTAMYYCTRITTDADSSGLFHYWGQGTLVTVSS VL: EIVLTQSPSTLSASVGDRVTITCRASQNIYTWLAWYQRKPGKAPKVLIYKASSLESGVPSRFSGSGSGTEFTLTISSLQPDDFATYYCQQYKSAWSFGQGTKVEIK | 0.0175 µg/mL | 0.0239 µg/mL | 0.0396 µg/mL | 0.0095 µg/mL | 0.0018 µg/mL
Ab830 (antibody, V domains shown) VH: QVQLVQSGAEVKKPGSSVKVSCKTSGGTFTNYTISWVRQAPGQGLEWMGRIIPIFDIVNYAQKFQGRVTITADKSTSTTYMELSSLRSEDTAVYYCARDGVLYDTSGYLYDAFDIWGQGTMVTVSS VL: DIQMTQSPSSLSASVGDRVTITCRASQGINNYLAWFQQKPGKAPKSLIYAASSLQSGVPPKFSGSGSGTDFTLTISSLQPEDFATYYCLHYNSYPWTFGQGTKVEIK | 0.0374 µg/mL | 0.0554 µg/mL | 0.0042 µg/mL | 0.0569 µg/mL | 0.0011 µg/mL
Ab847 (antibody, V domains shown) VH: EVQLVQSGAEVKKPGASVKVSCKASGYTFTSYDIIWVRQATGQGLEWMGWMDPSRGTTGYAQTFQGRVTMTRDTSISTAYLELNSLTSEDTAVYYCVAHIVVLDRWFDPWGQGTLVTVSS VL: DIVMTQSPSSLSASVGDRVTITCQASQDIGNFLNWCQQKPGQAPKVLIYGASNLETGVPSRFSGSGSGTDFTFTISSLQPEDIATYYCQHYDNFPPRFTFGQGTKLDIK | 0.0821 µg/mL | 0.0422 µg/mL | 0.0548 µg/mL | 0.0103 µg/mL | 0.0502 µg/mL
Ab863 (antibody, V domains shown) VH: EVQLVQSGAEVKKPGASVKVSCQASGYTFITYYMHWVRQAPGQGLEWMGIINPDGGSISYAQKFQGRVTMTRDTSTSTVYMELSSLRSEDTAVYYCARGLSPTFSSSWFDNWGLGTLVTVSS VL: DVVMTQSPATLSVSPGERATLSCRASQSVSSNLAWYQQKPGQAPRLLIYGASTRDTGIPARFSGSGSGTEFTLTISSLQSEDFAVYFCQQYKNWLLTFGGGTKVEIK | 0.0301 µg/mL |  |  |  | 
Ab864 (antibody, V domains shown) VH: EVQLVESGGGLVQPGRSLRLSCAASGFTFDDYAMHWVRQVPGKGLEWVSGISWNKGNIDYADSVKGRFTISRDNAKNSLYLQMNSLRPEDTGLYYCAKDCHYDSPGYFPNCLHSWGQGTLVTVSS VL: EIVMTQSPSSLSASVGDRVTITCRASQGINTYLAWYQQKPGKAPKLLIYTASTLQSGVPSRFSGSGSGTDFTLTISSLQPEDFATYYCQQVHSYPLTFGGGTKVEIK | 0.0098 µg/mL | 0.0172 µg/mL | 0.0234 µg/mL | 0.0044 µg/mL | 
